Data: US11707527B2, “Nanoscale drug carrier capable of passing through blood-brain barrier” (KUNSHAN XINYUNDA BIOTECH CO., LTD., priority 2017, dated 2023)

What was measured:
hCMEC/D3 BBB model = experiment: In vitro BBB model (Transwell) transcytosis; type: in vitro ADME, human; settings: 50 μg/mL FITC-labeled, 6 h, upper to lower chamber
Method: The cells were cultured at 37° C. under CO2 in an incubator to confluence (2-3d). After the confluence state of hCMEC/D3 was observed by a microscope, medium (EBM-2 medium) was added to an upper chamber of the Transwell plate, resulting a more than 0.5 cm difference of liquid level between the upper and lower chamberst. If an obvious difference between the two chambers can be still observed after 4 h, it was regarded as completely confluent. The wells of Transwell without inoculated cells were used as a blank control.
Equal amount (50 μg/mL) of FITC-labeled H-ferritins and the control FITC-labeled BSA were dissolved in EBM-2 medium (Gibco Life Technologies Inc., UK). […] The total volume (V) of the lower chamber was measured after being cultured for 6 h in a cell incubator. And then, 50 μL samples were respectively taken out of the lower chamber, and H-ferritin or BSA concentration (C) was measured by measuring fluorescence intensity (wavelength 488 nm). Afterwards, transcytosis efficiency was calculated according to the following formula: transcytosis efficiency %=(Clower chamber×Vlower chamber)/(Cinitial×Vinitial)×100%.

[1] = system: human BBB brain endothelial cells hCMEC/D3; experiment: Endocytosis and lysosome co-localization in human brain endothelial cells (confocal microscopy); type: cell-based; settings: hCMEC/D3, 4 h incubation
Method: Human BBB brain endothelial cells hCMEC/D3 slides (BD Biosciences) were placed in a 6-well plate (with well diameter of 34.8 mm, Corning, USA) for culturing above to a density of about 60%, then the experiment was conducted. 1 μM FITC-labeled H-ferritin above was added, and incubated respectively for 5 min and 6 min at 37° C. Then the cells were washed with 0.3% BSA/PBS for three times, and finally fixed with 4% paraformaldehyde. After being washed with PBS (pH7.4) for three times, cell nuclei were stained with DAPI (Roche Applied Science) 10 min at room temperature. After being washed by PBS for three times again, the slides were mounted with a mounting medium, and observed by laser confocal microscopy (Olympus FluoView FV-1000, Tokyo, Japan).
Human BBB brain endothelial cells hCMEC/D3 slides (BD Biosciences) were placed in a 6-well plate for culturing to a density of about 60%, and then the experiment was conducted. […] The cells were fixed with 4% paraformaldehyde after being washed with PBS for three times. Then 0.1% Triton X-100 was used for cell permeabilization After being washed with PBS again, the cells were blocked in 5% goat serum (ZSGB-BIO) 30 min at room temperature, and then incubated in Alexa Fluor®555-labeled antibodies and lysosome marker molecules LAMP1 (1:200, clone H4A3; Invitrogen) for 1 h at 37° C. […]

[2] = system: human BBB brain endothelial hCMEC/D3 cells; experiment: Specific binding of FITC-labeled ferritin to human brain endothelial cells (flow cytometry); type: cell-based; settings: 50 μg/ml FITC-labeled protein, 45 min, 4° C., hCMEC/D3, vs FITC-BSA
Method: Human BBB brain endothelial hCMEC/D3 cells were cultured to about 1×10^5 (100×20 mm, dish Corning, USA) and digested with trypsin, then the cells were washed with 0.3% (w/v) BSA/PBS (pH7.4) for three times. […] The cells were washed with 0.3% BSA/PBS for three times, finally resuspended in PBS (pH7.4). And fluorescence of the samples was tested by flow cytometry (at a wavelength of 488 nm).

B1: chimeric human H-ferritin: human L-ferritin with outer surface sequences replaced with SEQ ID NO: 1-3 of H-ferritin; SEQ ID NO: 7 (protein)
chain: MTSQVRQNYHQDSEAAINRQINLELYASYVYLSMSYYFDRDDVALEGVSHFFRELAEEKREGYERLLKMQNQRGGRIFLQDIKKPDCDDWESGLNAMECALHLEKNVNQSLLELHKLATDKNDPHLCDFLETHFLDEEVKLIKKMGDHVTNLRKMGAPESGLAEYLFERLTLKHD
modifications: chimeric human H ferritin
hCMEC/D3 BBB model
  crossing the in vitro BBB model (transcytosis efficiency): can significantly cross the blood brain barrier
[1]
  entering / co-localization with lysosome (LAMP1) in brain endothelial cells: did not co-localize with the lysosome
[2]
  specific binding with human brain endothelial cells: can still achieve specific binding
